experiment: yeast display, Sf9 membrane polyspecificity reagent, FACS + sequencing; frameworks hold sequencing errors
In short: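 A synthetic nanobody library was expressed on Saccharomyces cerevisiae BJ5465 by galactose induction for 36–48 hours. The library was stained for 1 hour at 4 °C with 10% biotinylated, detergent-solubilized Sf9 membrane reagent and enriched with streptavidin microbeads before FACS. Low and high (top ~1%) gates were set on anti-HA fluorescence for expression and streptavidin fluorescence for reagent binding, and each polyreactivity label reflects the gate of origin.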

Sequence	polyreactivity (PSR sort gate)
QVQLVESGGGLVQAGGSLRLICAASGLTFDYYDMGWYRQAPGKERELVASITWRGSSTYYADSVKGRFTISRDNAKNTVYLQMISLKPEDTAVYYCAARYRWSEWRPYYYWGQGTQVTVSS	high polyreactivity
QVQLVESGGGLVQAGGSLRLSCAASGRTFRANTMGWYRQAPGKERELVAAINWSGGSTYYADSVKGRFTISRDNAKNTVYLQMNSLKPEDTAVYYCAKRVSVSYRKSTYDYWGQGTQVTVSS	high polyreactivity
QVQLEESGGGLVQAGGSLRLSCAASGRTFAYYFMGWYRQAPGKERQLVAAISGSGGSTYYADSVKGRFTISRDNAKNTVYLQMNSLKPEDTAVYYCAAQYAYGGYDYWGQGTQVTVSS	high polyreactivity
QVQLVESGGGLVQAGGSLRLSCAASGLIFHSYAMGWYRQAPGKERELVAAISKRGGSTYYADSVKGRFTISRDNAKNTVYLQMNSLKPEDTAVYYCAAGARGLYDYWGQGTQVTVSS	high polyreactivity
QVQLVESGGGLVQAGGSLRLSCAASGSTFYGYGMGWYRQAPGKERELVAAITGSGDTTYYADSVKGRFTISRDNAKNSVYLQMNSLKPEDTAVYYCNARWHAEYDYWGQGTQVTVSS	low polyreactivity
QDQLVESRGGIVQAVRSLRLSSAASGSTYRNYAMGWYRQAPGKERELVAAISGSGGRTNYADSVKGRFTISRDNAKNTVYLQMNSLKQEDTAVYYCNARFPDWALSEISNSTTYGYWGQGTQVNVSS	low polyreactivity
QVQLVESGGGLVQAGGSLRLSCAASGRTFSKYTMGWYIQAPGKERELVAAISYSGGSTYYADSVKGRFTISRDNAKNTVYLKMNSLKPEDTAVYYCAARASTYKYYYWGQGTQVTVSA	high polyreactivity
QVQLVESGGGLVQAGGSLRLSCAASGSIFAIYAMGWYRQAPGKERELVAAISYGDGSTYYADSVKGRFTISRDNAKNTVYLQMNSLKPEDTAVYYCAVGTRVKYDYWGQGTQVTVSS	high polyreactivity
QVQLVESGGGLVKEGGSLRLSCAASGSIYYENTMGWYRQAPGKERELVASISCGGSTYADSVKGRFTISRDNAKNSVYLQMYSLKAEDSAVYYCNADSSTEYDYWGQGTQVTVSS	low polyreactivity
QVQLVESGGGLVQAGGSLRLSCAACVFIFSRYAMGWYRQAPGKERELVAAISRGGSTNYADSVKGRFTISRDNAKNTVYLQMNSLKPEDTAVYYCAVRQNVRYYYWGQGTQVTVSS	high polyreactivity
QVQLVESGGGLVQAGGSLRLSCAASGSTFPRYAMGWYRQAPGKERELVAAISRSGTTTYYADSVKGRFTISRDNAKNTVYLQMNSLKPEDTAVYYCAKRHYARYDYWGQGTQVTVSS	high polyreactivity
QVQLVESGGGLVQAGGSLRLSCAASGRTFGQNTMGWYRQAPGIERELVAAINWSGGSTYYADSVKGRFTISRDNAKNTVYLQMNSLKPEDTAVYYCAVRGYWGQGTQVTVSS	low polyreactivity
QVQLVESGGGLVQAGGSLRLSCAASGGTFPTNAMGWYRQATGKERELVAAITSSGVRTYYADSVKGRFTISRDNAKNTVYLQLNSLKPEDTAVYYCKAVTRYVRLTDDDYWGQGTQVTVSS	high polyreactivity
QVQLVESGGGLVQAGGILRLSCAASGITFGGYAMAWYRQAPGKERELVAAISRGGGSTNYADSVKGRFTISRDNAKNTVYLQINSLKPEDTAVYYCNARRQNSRYDYWGQGTQVTVSS	low polyreactivity
QVQLVESGGGLVQAGGSLRLSCAASGNTFYAYAMGWYRQAPGKERELVAAIARGGNTYYADSVKGRFTISRDNAKNTVYLQMNSLKPEDTAVYYCNAYYPIRSSPYGYYYWGQGTQVTVSS	high polyreactivity
QVQLVESGGGLVQAGGSLRLSCAASGLTFYRYAMGLYRQAPGKERELVAGITRRGGSTYYADSVKGRFTISRDNAKNTVYLQMNSLKPEDTSVYYCNVDGISSSYPELDYWGQGTQVTVSS	low polyreactivity
QVQLVESGGGLVQAGGSLRLSCAASGFTFSAYTMGWYRQAPGKERELVAAINWSGANTYYADSVKGRFTISRDNAKNTVYLQMNSLKPEDTAVYYCNAEDDYTYDLSFGGYKYDYWGQGTQVTVSS	low polyreactivity
QVQLVESGGGLVQEGGSLRLICAASGSTFKAYAMGWYRQAPGKERELVAAITNSDGDTYYADSVKGRFTISRDNAKNTVYLQMNSLKPEDRAVYYCNADDALRQTPDYNYWGQGTQVTVSS	low polyreactivity
QVQLVESGGGLVQAGGSLRLSCAASGSTFYAYAMGWYRQAPGKERELVAAINGSGGSTNYADSVKGRFTISRDNAKHTDYLQMNSQKPEDTAVYYCAADWSRRLYDYWGQGTQVTVSS	low polyreactivity
QGQLVESGGGFVQAGGSLRLSCDASGNIFSANAMGWYRQAPWKEREFVAAISSTGGSTYYADSVKGRFTISRDNEMNTLYLQMNCLKPEDTAVYYCAAYIRRYFHYDYWRQGTQVTVSS	high polyreactivity
QVQLVESGGGLVQAGGSLRLSCAASGRTFRYYTMGWYRQAPGKERELVAAISRGGRTYYADSVKGRFTISRDNGKNTVYLQMNSLKPEDTAVYNCAAQLFREYYYWGHGTQVTVSS	high polyreactivity

Sequence	polyreactivity (PSR sort gate)
QVQLVESAGGLVQAGASLRLSCAPSGSIFRINAMGWYRQAPGKERELVAAISTRSGRTYYADSVKGRFTISRDNAKNTVYLQMYSLNPEDTAVYYCARYRTQASGYGGYDYWGQGTQATVSS	high polyreactivity
QVQLVESGGGLVQAGGSLRLSCAASGRIVRNAMGWYRQAPGKERELVAAISRSGGSTYDADSVKGRFTISRDNAKNTVYLQMNSLKPEDTAVYYCAKRSTSQSLQVEYWGQGTQVTVSS	high polyreactivity
QVQLVESGGGLVQARGSLRLSCAASGRIFVRKAMGWYRQAPGKERELVASISTSSGSTYYADSVKGRFTISRDNAKNTVYLQMNSLTPEVTAVYYCNAGYHFVHWPHVKHKKFDYWGQGTQVTVSS	low polyreactivity
QVQLVESGGGLVQAGGSLRLSCAASGSTSYNAMGWYRQAPGKERELVAAISDGGGSTYYADSVKGRFTISRDNAKNTVYLQMNSLKPEDTAVYYCAADTITGDGYWGQGTQVTVSA	low polyreactivity
QVQLVESGGGLVQAGGSLRLSCPDSVFTFGATVMGWYRQAPGKEREFVAGITWSGDSTYYADSVKGRFTISRDNAKNTVYFQMNSLKPEDTAVYYCAADVYDGAYILDYDYWGQGTQVTVSS	low polyreactivity
QVQLVESGGGVVQAGGSLRLSCAASGRTFPYNPMGWYRQAPGKERELVAAISGRGGSTYYADSVKGRFTISRDNAKNTVYLQMNSLKPEVSAVYYCDARLPWSYYRTQGYNYWGQGTQVTVSS	high polyreactivity
QVQLVESGGGFVQAGRSLRLSCAASGSTFYIYAMGWSRQAPGKEREMVADISRGDSTNYADSVKGRFTISRDNAKNPVYLQLNSLKPEDTAVYYCNAAFRGERDWFSGRRYKFDYWGQGTQVTVSS	low polyreactivity
QVQLVESGGGLVQAGGSLRLSCAASGLTFPYYAMGWYRQAPGKERELVAAISGGGRTYYADSVMGRFTISRDNAKNTVYLQMNSLKPEDTAVYYCAPFHVGRYTGTVTDGYDYWGQGTQVTVSS	high polyreactivity
QVQLVESGGGLDQAGGSLRLSCAASVFIFAYYAMGWYRQAPGKERELVAAITRHGGSTYDADSVKGRFTISRDNAQNTVYLQMNSLKPEETAVYYCNAYFGWSASRQSYDYWGQGTQVTVSS	high polyreactivity
QVQLVESGGGLVQAGGSLRLSCAASGSIFAWYAMGRYRQAPGKEMELVAAIRYRGDGTYYADSVKGRFTISRDNAKNTVYLQMNSLKPEDTAVYYCAADSRVYRGGYIYRYGYWGQGTQVTVSS	low polyreactivity
QVQLVESGGGLVQAGGSLRLSCAASGFTFYSKAMGWYRQAPGKERQLVATIRSDGRTNYADSVKGRFTISRDNAKNTVYLQMNSLNPEDTAVYYCNADYRNDWGTPLWYAYNYWGQGTQVTVSS	low polyreactivity
QVQLVESGGGLVQAGGSLRLSCAASGSIFWQTPMGWYRQAPGKERELVAAITRSGGSTYYADSVKGRFTISRDNAKITVYLQMNSLKPEDTLVYYCKKYGYKGGVGDDYWGQGTQVTVSS	high polyreactivity
QVQLVESGGGLVQAGGSLRLSCAASGITIRRYGMGWYRQAPGKERELVATITRDGRTYYADSVKGRFTISRDNAKNTVYLQMNSLKPEDTAVYYCARPARYSYGDGYWGQGTQVTVSS	low polyreactivity
QVQLVESGGGLVQARGSLRLSCAASGSIFNRNAMGWYRQAPGKERELVAAISRRGGSTYYADSVKGRFTISRDNEKNSVYLQMNSLKPEDTAVYYCAAATRKTEYDYWGQGTEVTVSS	low polyreactivity
QVQLVESGGGLVQAGGSLRLSCAASGSTFTDYAMGWYRQAPGKERELVASITSGGRTNYADSVKGRFTISRDNAKNTVYLQMNSLKPEDTAVYYCNASAWLVVARTRYGYWGQGTQVTVSS	low polyreactivity
QVQLVESGGGLVQAGGSLRLSCAASGSIFSVNDMGWYRQAPGKERELVAAISSGGSTNYADSVKGRFTISRDNAKNTVSLQMNSLKPEDTAVYYCNTVVRGWSSSAYDYWGQGTQVTVSS	low polyreactivity
QVQLVESGGGLVQAGGSLRLSCAASGRTFWYYAMGWYREAPGKERELVAAITRGGRTNYADSVKGRFTISRDNAKNTVYLQMKSLKPEDTAVYYCAADYRYPAHSYGYWGQGTLVTVSS	high polyreactivity
QVQLVESGGGLVQAGGSLRLSCAASGFTVAIYAMGWYRHAPGKERELVAAINRCGGSTYYADSVKGRFTISRDNAKNSVYLQMNSLKTEDTAVYYCNKRYRVWFDYWGQGTQVTVSS	high polyreactivity
QVQLVESGGGLVQAGGSLRLSCAASGRIFDQYTMGWYRQAPGKERELVAAIRWSDGSTYYADSVKGRFTISRDNAKNTVYLQMNSLKPEDTAVYYCAADTRTSYYNDDYDYWGQGTQVTVSS	low polyreactivity
QVQLVESGGGLVQAGGSLRLSCAASGSTFAYNTMGWYRQAPGKDRELVAAISQRGGSTYADSVKGRFTISRDNAKNTVYLQMNSLKPEDNAVYYCAADGYTYKFDYWGQGTQVTVSS	low polyreactivity

From the nanobody polyreactivity screen of Harvey et al. (2022)
